Experimental data as given in FireProtDB.
Where “and” joins values, the source holds several entries; their conditions need not be identical. Equal entries are not always repeated.

Settings: whole UniProt chain shown
[1] = Niallia circulans, pH 6, Thermal, DSC, HEPES 100 mM, reversible: No
[2] = Niallia circulans, pH 8.5, Thermal, DSC, HEPES 100 mM, reversible: No
[3] = Niallia circulans, pH 10, Thermal, DSC, CHESS 100 mM, reversible: No
[4] = Phaseolus vulgaris, pH 7, 25 °C, GdnHCl, CD, Potassium phosphate 50 mM, Na2SO4 0.5 M, reversible: yes
[5] = Phaseolus vulgaris, pH 7, 25 °C, GdnHCl, Fluorescence, Potassium phosphate 50 mM, Na2SO4 0.5 M, reversible: yes
[6] = Mus musculus, pH 4, 25 °C, GdnHCl, CD, Sodium acetate 10 mM, reversible: yes
[7] = Mus musculus, pH 4, 25 °C, Urea, CD, Sodium acetate 10 mM, reversible: yes
[8] = Mus musculus, pH 7.4, 25 °C, Urea, CD, Tris-HCl 10 mM, reversible: yes
[9] = Oryctolagus cuniculus, pH 7.4, Thermal, DSC, sodium phosphate 50 mM, reversible: yes

B1: Phosphoserine aminotransferase wild type, Q59196 (protein)
chain: MSKRAYNFNAGPAALPLEVLERAQAEFVDYQHTGMSIMEMSHRGAVYEAVHNEAQARLLALLGNPTGYKVLFIQGGASTQFAMIPMNFLKEGQTANYVMTGSWASKALKEAKLIGDTHVAASSEASNYMTLPKLQEIQLQDNAAYLHLTSNETIEGAQFKAFPDTGSVPLIGDMSSDILSRPFDLNQFGLVYAGAQKNLGPSGVTVVIVREDLVAESPKHLPTMLRYDTYVKNNSLYNTPPSFGIYMVNEVLKWIEERGGLEGVQQANRKKASLIYDAIDQSGGFYRGCVDVDSRSDMNITFRLASEELEKEFVKASEQEGFVGLKGHRSVGGLRASIYNAVPYESCEALVQFMEHFKRSRG
[1]
  Tm: 71 °C
  unfolding enthalpy (calorimetric): 288 kcal/mol
[2]
  Tm: 58.4 °C
  unfolding enthalpy (calorimetric): 121 kcal/mol
[3]
  Tm: 58 °C
  unfolding enthalpy (calorimetric): 124 kcal/mol

B2: Serine proteinase inhibitor IA-1 wild type, Q7M4T6 (protein)
chain: SAGKFIVIFKNDVSEDKIRETKDEVIAEGGTITNEYNMPGMKGFAGELTPQSLTKFQGLQGDLIDSIEEDGIVTTQ
Pleurotus ostreatus, pH 7, Thermal, CD, sodium phosphate 50 mM
  Tm: 59 °C

B3: Plastocyanin wild type, P00287 (protein)
chain: LEVLLGSGDGSLVFVPSEFSVPSGEKIVFKNNAGFPHNVVFDEDEIPAGVDAVKISMPEEELLNAPGETYVVTLDTKGTYSFYCSPHQGAGMVGKVTVN
[4]
  denaturant m value: 2.7 kcal/mol/M
  denaturant midpoint (higher = more stable): 2.1 M
  unfolding free energy: 5.8 kcal/mol
[5]
  denaturant m value: 2.5 kcal/mol/M
  denaturant midpoint (higher = more stable): 2.1 M
  unfolding free energy: 5.3 kcal/mol

B4: Harpin HrpZ wild type, P35674 (protein)
chain: MQSLSLNSSSLQTPAMALVLVRPEAETTGSTSSKALQEVVVKLAEELMRNGQLDDSSPLGKLLAKSMAADGKAGGGIEDVIAALDKLIHEKLGDNFGASADSASGTGQQDLMTQVLNGLAKSMLDDLLTKQDGGTSFSEDDMPMLNKIAQFMDDNPAQFPKPDSGSWVNELKEDNFLDGDETAAFRSALDIIGQQLGNQQSDAGSLAGTGGGLGTPSSFSNNSSVMGDPLIDANTGPGDSGNTRGEAGQLIGELIDRGLQSVLAGGGLGTPVNTPQTGTSANGGQSAQDLDQLLGGLLLKGLEATLKDAGQTGTDVQSSAAQIATLLVSTLLQGTRNQAAA
Pseudomonas syringae pv. syringae, pH 7.5, Thermal, CD, Sodium phosphate 5mM
  unfolding enthalpy (calorimetric): 33.8 kcal/mol and 58.3 kcal/mol

B5: Interleukin-6 wild type, P08505 (protein)
chain: MKFLSARDFHPVAFLGLMLVTTTAFPTSQVRRGDFTEDTTPNRPVYTTSQVGGLITHVLWEIVEMRKELCNGNSDCMNNDDALAENNLKLPEIQRNDGCYQTGYNQEICLLKISSGLLEYHSYLEYMKNNLKDNKKDKARVLQRDTETLIHIFNQEVKDLHKIVLPTPISNALLTDKLESQKEWLRTKTIQFILKSLEEFLKVTLRSTRQT
[6]
  denaturant m value: 0.7 kcal/mol/M
  denaturant midpoint (higher = more stable): 2.7 M
  unfolding free energy: 1.8 kcal/mol
[7]
  denaturant m value: 1.9 kcal/mol/M
  denaturant midpoint (higher = more stable): 3.6 M
  unfolding free energy: 6.9 kcal/mol
Mus musculus, pH 4, 25 °C, Urea, CD, Sodium acetate 10 mM
  unfolding free energy: 6.8 kcal/mol
Mus musculus, pH 4, 25 °C, Urea, Fluorescence, sodium acetate 0.5 M
  unfolding free energy: 6 kcal/mol
[8]
  denaturant m value: 0.7 kcal/mol/M
  denaturant midpoint (higher = more stable): 4.8 M
  unfolding free energy: 3.4 kcal/mol

B6: cAMP-dependent protein kinase type I-beta regulatory subunit wild type, P12849 (protein)
chain: MASPSCFHSEDEDSLKGCEMYVQKHGIQQVLKECIVHLCVAKPDRPLRFLREHFEKLEKEENRQILARQKSNSQCDSHDEEISPTPPNPVVKARRRRGGVSAEVYTEEDAVSYVRKVIPKDYKTMTALAKAISKNVLFSHLDDNERSDIFDAMFPVTHIGGETVIQQGNEGDNFYVIDQGEVDVYVNGEWVTNISEGGSFGELALIYGTPRAATVKAKTDLKLWGIDRDSYRRILMGSTLRKRKMYEEFLSKVSILESLEKWERLTVADALEPVQFEDGEKIVVQGEPGDDFYIITEGTASVLQRRSPNEEYVEVGRLGPSDYFGEIALLLNRPRAATVVARGPLKCVKLDRPRFERVLGPCSEILKRNIQRYNSFISLTV
Mus musculus, pH 7, 23 °C, GdnHCl, Fluorescence, MOPS 5 mM, KCl 100 mM, reversible: yes
  unfolding free energy: 7.2 kcal/mol
Mus musculus, pH 7, 23 °C, Urea, Fluorescence, MOPS 5 mM, KCl 100 mM, reversible: yes
  unfolding free energy: 7 kcal/mol

B7: Cytochrome b5 wild type, P00169 (protein)
chain: MAAQSDKDVKYYTLEEIKKHNHSKSTWLILHHKVYDLTKFLEEHPGGEEVLREQAGGDATENFEDVGHSTDARELSKTFIIGELHPDDRSKLSKPMETLITTVDSNSSWWTNWVIPAISALIVALMYRLYMADD
Oryctolagus cuniculus, pH 7.4, 25 °C, Thermal, DSC, sodium phosphate 50 mM, reversible: yes
  unfolding free energy: 1.7 kcal/mol
[9]
  Tm: 48.5 °C
  heat capacity change of unfolding: 1 kcal/mol/K
  unfolding enthalpy (calorimetric): 35.7 kcal/mol

B8: Lipase B wild type, P41365 (protein)
chain: MKLLSLTGVAGVLATCVAATPLVKRLPSGSDPAFSQPKSVLDAGLTCQGASPSSVSKPILLVPGTGTTGPQSFDSNWIPLSTQLGYTPCWISPPPFMLNDTQVNTEYMVNAITALYAGSGNNKLPVLTWSQGGLVAQWGLTFFPSIRSKVDRLMAFAPDYKGTVLAGPLDALAVSAPSVWQQTTGSALTTALRNAGGLTQIVPTTNLYSATDEIVQPQVSNSPLDSSYLFNGKNVQAQAVCGPLFVIDHAGSLTSQFSYVVGRSALRSTTGQARSADYGITDCNPLPANDLTPEQKVAAAALLAPAAAAIVAGPKQNCEPDLMPYARPFAVGKRTCSGIVTP
Pseudozyma antarctica, pH 7, Thermal, CD, Tris-HCl 50 mM, reversible: No
  Tm: 57.7 °C
Pseudozyma antarctica, pH 7, Thermal, Differential Scanning Fluorimetry, HEPES 10mM
  Tm: 54.8 °C
